The chains are these.
B1: Drosophila melanogaster Canoe RA2 domain (amino acids 222-350, including the αN helix), with His-tag (domain or fragment, UniProt Q24279 222-350, looked up)
chain: TRSISNPEAVMRRRRQQKLEKKLQQFRSRDGGPDTGGTLKIYGESLCQDVPYKTLLLSIRDCAQAVVREMLTKYGLEKADPLHYCLVQVNSDGTEYILDDDECPLSILMNHPTSRGSIMFHVRRRPADS
notes: Canoe (Cno), Drosophila melanogaster, RA2 domain with its N-terminal αN helix, amino acids 222-350; Cloned NdeI/EcoRI in pET28; also called Cno RA2; RA2 with His-tag; source: E. coli BL21 DE3 pLysS, purified (Ni-NTA, without thrombin treatment); not shown: His6, N-terminal, kept
B2: Drosophila melanogaster Canoe RA1 domain (amino acids 1-137, including the αN helix) (domain or fragment, UniProt Q24279 1-137, looked up)
chain: MSHDKKMLDREAVRSVIQQWNANRLDLFALSEPDENLLFHGVMRFYFQDAGQKVATKCIRVASDATVTDVIDTLIEKFRPDMRMLSVPNYALYEVHANGEERRLNADEKPLLVQLNWHIDDREGRFLLKNIDQKTTP
notes: Canoe (Cno), Drosophila melanogaster, RA1 domain with its N-terminal αN helix, amino acids 1-137; The methods say that some RA1 preparations were purified without thrombin treatment; also called Cno RA1; source: E. coli BL21 DE3 pLysS, purified (Ni-NTA, thrombin cleavage, benzamidine sepharose, second Ni-NTA); not shown: His6, N-terminal, cleaved
B3: Drosophila melanogaster GTPase Rap1G12V (amino acids 1-180), GMPPNP-loaded (enzyme, UniProt P08645 1-180, looked up)
chain: MREYKIVVLGSVGVGKSALTVQFVQCIFVEKYDPTIEDSYRKQVEVDGQQCMLEILDTAGTEQFTAMRDLYMKNGQGFVLVYSITAQSTFNDLQDLREQILRVKDTDDVPMVLVGNKCDLEEERVVGKELGKNLATQFNCAFMETSAKAKVNVNDIFYDLVRQINKKSPEKKQKKPKKSL
notes: Rap1 GTPase, Drosophila melanogaster, amino acids 1-180, constitutively active G12V mutant; Loaded with the non-hydrolysable nucleotide GMPPNP and Mg2+ (formula mass 21.0 kDa); Cloned NdeI/EcoRI in pET28; a few vector residues probably remain at the N-terminus after thrombin cleavage (surmised); also called Rap1-GMPPNP; Rap1G12V-GMPPNP; source: E. coli BL21 DE3 pLysS, purified (Ni-NTA, thrombin …)

Common to all, as to conditions: both partners purified
Assay [1] concerns the target B3. Put plainly: ITC; GMPPNP-loaded Rap1G12V (150-670 µM for RA1; 650-1200 µM for RA2) injected into the cell with RA1 (20-50 µM) or RA2 (42-80 µM); 25°C, buffer C (25 mM HEPES-NaOH pH 7.5, 100 mM NaCl, 5 mM MgCl2, 0.1% β-ME); one-site binding model. (In ITC the heat of successive injections is recorded.)
The target of assay [2] is B2. The assay is described as above.
The target of assay [3] is B1. Described as above.
The target of assay [4] is B2. Put plainly: SEC-MALS; 100 µl of individual proteins (200 µM) or RA domain-Rap1G12V-GMPPNP complexes (200 µM complex) on Superdex 200, 0.5 ml/min, buffer C (25 mM HEPES-NaOH pH 7.5, 100 mM NaCl, 5 mM MgCl2, 0.1% β-ME) with 0.2 g/l sodium azide; in duplicate. Background: SEC sorts molecules by how far they enter the pores of the column.

Values joined by “and” are separate entries in the source; they are usually repeats but may differ in a detail not shown here. Equal entries are not always repeated.

By Kd is commonly meant the concentration at which binding is half-saturated. B1: the Kd in assay [1] is 8.8 µM and 7.9 µM and 8.7 µM.
As for B2, the Kd in assay [1] was 4.5 µM and 5.9 µM.
One may read the stoichiometry N as the number of molecules, sites or subunits per partner or assembly. On to B3, for which the dH in assay [2] was -4.38 kcal/mol and -4.79 kcal/mol; in assay [3], -3.07 kcal/mol and -2.18 kcal/mol and -2.72 kcal/mol. Further, the “stoichiometry N” value is 0.717 in assay [2]; 0.755 and 0.73 and 0.63 in assay [3]; 1 in assay [4].

(Values after article PMC11698047, “The dual Ras-association domains of Drosophila Canoe have differential roles in linking cell junctions to the cytoskeleton during morphogenesis” (Journal of Cell Science, 2024).)
